Results taken from patent publication US20240053360A1 (EQUILLIUM, published 2024).

Target: T1, cell surface CD6 on human T cells (CD4 and CD8 T cells of PBMCs / whole blood) (human, UniProt P30203 18-668)
T1 construct: whole, on cells
T1 sequence (looked up): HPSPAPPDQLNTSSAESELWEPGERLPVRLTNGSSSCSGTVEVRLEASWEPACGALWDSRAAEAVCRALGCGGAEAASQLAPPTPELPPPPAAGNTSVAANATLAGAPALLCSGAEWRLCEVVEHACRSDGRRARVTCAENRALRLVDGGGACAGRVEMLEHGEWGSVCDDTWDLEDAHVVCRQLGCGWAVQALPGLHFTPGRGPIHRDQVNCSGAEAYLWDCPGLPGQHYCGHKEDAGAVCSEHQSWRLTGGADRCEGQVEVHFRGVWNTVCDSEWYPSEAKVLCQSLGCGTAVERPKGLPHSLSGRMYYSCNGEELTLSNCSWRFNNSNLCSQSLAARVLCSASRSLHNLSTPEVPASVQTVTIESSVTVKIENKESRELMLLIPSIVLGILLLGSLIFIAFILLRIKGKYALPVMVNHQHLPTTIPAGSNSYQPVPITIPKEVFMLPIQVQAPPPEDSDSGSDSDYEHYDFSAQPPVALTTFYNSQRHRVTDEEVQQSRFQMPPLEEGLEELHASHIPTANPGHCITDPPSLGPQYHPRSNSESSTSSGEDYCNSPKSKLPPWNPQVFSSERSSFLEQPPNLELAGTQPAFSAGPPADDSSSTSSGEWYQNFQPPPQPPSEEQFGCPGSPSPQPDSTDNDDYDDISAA
Test: flow cytometry, receptor occupancy on CD4 and CD8 T cells

B1: itolizumab (antibody, human IgG1, kappa, V domains shown)
VH: EVQLVESGGGLVKPGGSLKLSCAASGFKFSRYAMSWVRQAPGKRLEWVATISSGGSYIYYPDSVKGRFTISRDNVKNTLYLQMSSLRSEDTAMYYCARRDYDLDYFDSWGQGTLVTVSS
VL: DIQMTQSPSSLSASVGDRVTITCKASRDIRSYLTWYQQKPGKAPKTLIYYATSLADGVPSRFSGSGSGQDYSLTISSLESDDTATYYCLQHGESPFTLGSGTKLEIKR
notes: Humanized anti-CD6 monoclonal antibody; also called EQ001; ALZUMAB
binding result: binds
